Results: publication PMC12084297, “Cytoplasmic connexin43-microtubule interactions promote glioblastoma stem-like cell maintenance and tumorigenicity” (Cell Death & Disease, 2025)

How the values were obtained:
[1] = molecular target: β-tubulin (human (endogenous in VTC-001 and VTC-037 GSCs)) (UniProt P07437); assay: cellular thermal shift assay (CETSA); fresh VTC-037 GSC lysates in non-denaturing buffer treated 1 h with 3-fold dilutions (222.2, 74.0, 24.7, 8.2 and 2.7 nM) of peptide, heat challenge at 57 °C for 20 min, centrifugation, immunoblot of the stable protein normalised to DMSO control; EC50 of target engagement
Chain of β-tubulin (human (endogenous in VTC-001 and VTC-037 GSCs)) (P07437 whole entry): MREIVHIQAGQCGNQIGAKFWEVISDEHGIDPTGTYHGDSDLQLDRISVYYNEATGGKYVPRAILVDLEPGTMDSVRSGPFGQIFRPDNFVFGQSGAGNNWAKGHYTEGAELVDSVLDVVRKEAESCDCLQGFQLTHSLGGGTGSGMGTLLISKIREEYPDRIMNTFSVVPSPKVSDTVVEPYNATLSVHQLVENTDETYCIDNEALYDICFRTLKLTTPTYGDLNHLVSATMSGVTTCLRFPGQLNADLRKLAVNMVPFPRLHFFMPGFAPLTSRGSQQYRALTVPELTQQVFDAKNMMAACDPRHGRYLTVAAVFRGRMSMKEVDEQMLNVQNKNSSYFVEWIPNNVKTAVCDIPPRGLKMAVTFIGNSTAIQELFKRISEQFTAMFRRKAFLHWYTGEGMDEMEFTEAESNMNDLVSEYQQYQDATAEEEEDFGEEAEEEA

[2] = molecular target: α-tubulin (human (endogenous in VTC-037 GSCs)) (UniProt P68363); assay: as above
Chain of α-tubulin (human (endogenous in VTC-037 GSCs)) (P68363 whole entry): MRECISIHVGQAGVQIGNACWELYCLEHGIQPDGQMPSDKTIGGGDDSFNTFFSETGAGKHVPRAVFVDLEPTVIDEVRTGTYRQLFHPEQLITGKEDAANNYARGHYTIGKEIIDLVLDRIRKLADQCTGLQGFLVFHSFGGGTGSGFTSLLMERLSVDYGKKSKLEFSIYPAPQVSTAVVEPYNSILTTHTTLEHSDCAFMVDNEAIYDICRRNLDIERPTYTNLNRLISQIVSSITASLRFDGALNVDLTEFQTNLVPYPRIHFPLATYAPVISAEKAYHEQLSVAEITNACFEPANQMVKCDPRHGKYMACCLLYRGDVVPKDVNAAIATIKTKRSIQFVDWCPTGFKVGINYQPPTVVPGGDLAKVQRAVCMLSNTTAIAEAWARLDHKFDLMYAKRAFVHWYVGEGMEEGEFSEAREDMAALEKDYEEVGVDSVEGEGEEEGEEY

- EC50 [1]: 7.9 nM
- EC50 [2]: 8.4 nM
Substance: JM2 (juxtamembrane 2) peptide
